The source of these data is patent US20060257938A1, “Method of screening for drugs that block ligand binding to a lipid binding protein” (priority 2005, published 2006).

Several values for one entry are separate records, joined by “and”; a condition that tells them apart may be missing. Equal entries are not always repeated.

Holding throughout (type): binding
Experiment [1] can be described thus: Probe fluorescence ratio response to linoleic acid relative to ADIFAB2. Conditions: response relative to ADIFAB2. The text has this:
(§1) In an alternate preferred embodiment, the protein is rI-FABP that has Ala substituted for Leu at position 72 (rI-FABP-L72A) with the resulting probe named ADIFAB2. […] Other probes useful in embodiments of the invention are shown in Tables 1-6 and are also described in U.S. application Ser. No. 11/085,792, filed Mar. 21, 2005 which is incorporated herein by reference. The indicated substitutions are with reference to the ADIFAB protein of SEQ ID NO: 2.
(§2) ADIFAB2 also has an altered spectral response, making it especially useful for measurements of FFAu in blood samples (Apple et al, Clinical Proteomics, (2004) 1:41-44, U.S. patent application Ser. No. 10/670,958). The wavelengths at the maximum intensities emitted by these fluorescently-labeled I-FABP's in the absence of FFA is about 420 to 480 nm. The emission wavelengths at the maximum intensities emitted by these fluorescently-labeled I-FABP's with FFA bound are between about 495 to 580 nm. Experiments typically involve measuring the fluorescence response within both emission maxima or at wavelengths for which the effect of interfering molecules such as hemoglobin can be eliminated as described in U.S. application Ser. No. 10/670958 and PCT/US2004/030521 and the calculation of the ratio ‘R’ of the two fluorescence intensities. The baseline value for this ratio, measured in the absence of analyte, is designated R0.
(§3) The intensity ratio (“R” value) is determined as follows. The ratio is calculated using the following formula: R=Fλ1/Fλ2 wherein, Fλ1 is the measured fluorescence intensities (intensity of sample with probe present minus intensity of sample without probe present) at wavelength 1 and Fλ2 is the measured fluorescence intensities (intensity of sample with probe present minus intensity of sample without probe present) at wavelength 2. Then, for a given probe, ΔR, the difference in R value between the measurement in the presence of the test compound (agent) and in the absence of the test compound (agent), is calculated as follows: ΔR=R+agent−R0 In some embodiments, the ΔR value may then be compared to some reference, for example, an agent with a known affinity for a given probe, by ΔR/ΔRreference. Measurements of fluorescence intensities are obtained using standard techniques.

Experiment [2] can be described thus: Probe fluorescence ratio response to palmitic acid relative to ADIFAB2. Conditions: response relative to ADIFAB2.
Description: as §1, §2, §3

Experiment [3] in a line: Probe fluorescence ratio response to oleic acid relative to ADIFAB2. Conditions: response relative to ADIFAB2.
Description: as §1, §2, §3

Experiment [4] in a line: Probe fluorescence ratio response to arachidonic acid relative to ADIFAB2. Conditions: arachidonic acid; response relative to ADIFAB2.
Description: as §1, §2, §3

Experiment [5] can be described thus: Probe fluorescence ratio response to linolenic acid relative to ADIFAB2. Conditions: response relative to ADIFAB2.
Description: as §1, §2, §3

B1: 117M, 72A (protein, listed as Rattus norvegicus)
chain: AFDGTWKVDRNENYEKFMEKMGINVVKRKLGAHDNLKLTITQEGNKFTVKESSNFRNIDVVFELGVDFAYSAADGTELTGTWTMEGNKLVGKFKRVDNGKELIAVREISGNELIQTMTYEGVEAKRIFKKE
modifications: PEPTIDE (1)...(131) wild-type rat intestinal fatty acid binding protein
With B1, the “DR/DR LA” value in experiment [1] is 1.31. Moreover, the “DR/DR PA” value in experiment [2] is on record as 1.14. Besides, the “DR/DR OA” value in experiment [3] is listed as 1.32. Besides, in experiment [4], the “DR/DR AA” value was 1.27. Also, the “DR/DR LNA” value in experiment [5] is given as 1.36.

B2: 117S, 72A (protein, listed as Rattus norvegicus)
chain: AFDGTWKVDRNENYEKFMEKMGINVVKRKLGAHDNLKLTITQEGNKFTVKESSNFRNIDVVFELGVDFAYSAADGTELTGTWTMEGNKLVGKFKRVDNGKELIAVREISGNELIQTSTYEGVEAKRIFKKE
modifications: PEPTIDE (1)...(131) wild-type rat intestinal fatty acid binding protein
Regarding B2, in experiment [1], the “DR/DR LA” value was 1.42 and 1.533. In addition, in experiment [2], the “DR/DR PA” value is 0.55 and 0.593. Also, in experiment [3], the “DR/DR OA” value was 1.19 and 1.258. Further, the “DR/DR AA” value in experiment [4] is 1.35 and 1.467. Also, the “DR/DR LNA” value in experiment [5] was 1.07 and 1.133.

B3: 119C, 72A (protein, listed as Rattus norvegicus)
chain: AFDGTWKVDRNENYEKFMEKMGINVVKRKLGAHDNLKLTITQEGNKFTVKESSNFRNIDVVFELGVDFAYSAADGTELTGTWTMEGNKLVGKFKRVDNGKELIAVREISGNELIQTYTCEGVEAKRIFKKE
modifications: PEPTIDE (1)...(131) wild-type rat intestinal fatty acid binding protein
Regarding B3, the “DR/DR LA” value in experiment [1] was 1.02 and 1.022. The “DR/DR PA” value in experiment [2] is 0.35 and 0.355. Besides, in experiment [3], the “DR/DR OA” value was 0.97 and 0.971. Besides, the “DR/DR AA” value in experiment [4] was 1.06 and 1.063. Also, the “DR/DR LNA” value in experiment [5] is 1.00 and 1.001.

B4: 117N, 72A (protein, listed as Rattus norvegicus)
chain: AFDGTWKVDRNENYEKFMEKMGINVVKRKLGAHDNLKLTITQEGNKFTVKESSNFRNIDVVFELGVDFAYSAADGTELTGTWTMEGNKLVGKFKRVDNGKELIAVREISGNELIQTNTYEGVEAKRIFKKE
modifications: PEPTIDE (1)...(131) wild-type rat intestinal fatty acid binding protein
B4: the “DR/DR LA” value in experiment [1] was 1.35. Besides, the “DR/DR PA” value in experiment [2] stood at 1.19. For the same molecule, the “DR/DR OA” value in experiment [3] worked out at 1.40. The “DR/DR AA” value in experiment [4] was 1.33. Further, the “DR/DR LNA” value in experiment [5] was determined as 1.37.

B5: 119A, 72A (protein, listed as Rattus norvegicus)
chain: AFDGTWKVDRNENYEKFMEKMGINVVKRKLGAHDNLKLTITQEGNKFTVKESSNFRNIDVVFELGVDFAYSAADGTELTGTWTMEGNKLVGKFKRVDNGKELIAVREISGNELIQTYTAEGVEAKRIFKKE
modifications: PEPTIDE (1)...(131) wild-type rat intestinal fatty acid binding protein
In the case of B5, the “DR/DR LA” value in experiment [1] was 0.61 and 0.450. Also, the “DR/DR PA” value in experiment [2] was 0.30 and 0.200. In experiment [3], the “DR/DR OA” value is 0.63 and 0.490. In addition, the “DR/DR AA” value in experiment [4] was 0.70 and 0.540. Moreover, the “DR/DR LNA” value in experiment [5] was 0.65 and 0.520.

B6: 102D, 72A (protein, listed as Rattus norvegicus)
chain: AFDGTWKVDRNENYEKFMEKMGINVVKRKLGAHDNLKLTITQEGNKFTVKESSNFRNIDVVFELGVDFAYSAADGTELTGTWTMEGNKLVGKFKRVDNGKEDIAVREISGNELIQTYTYEGVEAKRIFKKE
modifications: PEPTIDE (1)...(131) wild-type rat intestinal fatty acid binding protein
For the molecule B6, in experiment [1], the “DR/DR LA” value amounted to 0.63. The “DR/DR PA” value in experiment [2] was determined as 0.28. For the same molecule, in experiment [3], the “DR/DR OA” value turned out to be 0.59. The “DR/DR AA” value in experiment [4] is 0.52. Further, in experiment [5], the “DR/DR LNA” value worked out at 0.61.

B7: 117R, 72A (protein, listed as Rattus norvegicus)
chain: AFDGTWKVDRNENYEKFMEKMGINVVKRKLGAHDNLKLTITQEGNKFTVKESSNFRNIDVVFELGVDFAYSAADGTELTGTWTMEGNKLVGKFKRVDNGKELIAVREISGNELIQTRTYEGVEAKRIFKKE
modifications: PEPTIDE (1)...(131) wild-type rat intestinal fatty acid binding protein
On to B7, for which the “DR/DR LA” value in experiment [1] is on record as 0.70. For the same molecule, the “DR/DR PA” value in experiment [2] is given as 0.31. In addition, in experiment [3], the “DR/DR OA” value is recorded as 0.61. Also, in experiment [4], the “DR/DR AA” value is listed as 0.64. In addition, the “DR/DR LNA” value in experiment [5] is 0.70.

B8: 117V, 72A (protein, listed as Rattus norvegicus)
chain: AFDGTWKVDRNENYEKFMEKMGINVVKRKLGAHDNLKLTITQEGNKFTVKESSNFRNIDVVFELGVDFAYSAADGTELTGTWTMEGNKLVGKFKRVDNGKELIAVREISGNELIQTVTYEGVEAKRIFKKE
modifications: PEPTIDE (1)...(131) wild-type rat intestinal fatty acid binding protein
Take B8: the “DR/DR LA” value in experiment [1] was 0.94 and 0.924. The “DR/DR PA” value in experiment [2] is 0.49 and 0.498. Moreover, the “DR/DR OA” value in experiment [3] is 0.81 and 0.774. Moreover, the “DR/DR AA” value in experiment [4] is 0.82 and 0.805. For the same molecule, the “DR/DR LNA” value in experiment [5] is 0.81 and 0.767.

B9: 117T, 72A (protein, listed as Rattus norvegicus)
chain: AFDGTWKVDRNENYEKFMEKMGINVVKRKLGAHDNLKLTITQEGNKFTVKESSNFRNIDVVFELGVDFAYSAADGTELTGTWTMEGNKLVGKFKRVDNGKELIAVREISGNELIQTTTYEGVEAKRIFKKE
modifications: PEPTIDE (1)...(131) wild-type rat intestinal fatty acid binding protein
Turning to B9, in experiment [1], the “DR/DR LA” value is 0.92 and 0.917. In addition, the “DR/DR PA” value in experiment [2] is 0.57 and 0.567. In experiment [3], the “DR/DR OA” value is 0.81 and 0.813. Besides, in experiment [4], the “DR/DR AA” value was 0.79 and 0.791. In addition, the “DR/DR LNA” value in experiment [5] is 0.77 and 0.775.

B10: 117P, 72A (protein, listed as Rattus norvegicus)
chain: AFDGTWKVDRNENYEKFMEKMGINVVKRKLGAHDNLKLTITQEGNKFTVKESSNFRNIDVVFELGVDFAYSAADGTELTGTWTMEGNKLVGKFKRVDNGKELIAVREISGNELIQTPTYEGVEAKRIFKKE
modifications: PEPTIDE (1)...(131) wild-type rat intestinal fatty acid binding protein
With B10, the “DR/DR LA” value in experiment [1] turned out to be 0.86. For the same molecule, the “DR/DR PA” value in experiment [2] was determined as 0.38. Moreover, the “DR/DR OA” value in experiment [3] was determined as 0.73. The “DR/DR AA” value in experiment [4] is listed as 0.80. Moreover, in experiment [5], the “DR/DR LNA” value came out at 0.83.

B11: 117W, 72A (protein, listed as Rattus norvegicus)
chain: AFDGTWKVDRNENYEKFMEKMGINVVKRKLGAHDNLKLTITQEGNKFTVKESSNFRNIDVVFELGVDFAYSAADGTELTGTWTMEGNKLVGKFKRVDNGKELIAVREISGNELIQTWTYEGVEAKRIFKKE
modifications: PEPTIDE (1)...(131) wild-type rat intestinal fatty acid binding protein
Consider B11, for which the “DR/DR LA” value in experiment [1] was 0.45 and 0.446. In experiment [2], the “DR/DR PA” value was 0.34 and 0.339. Besides, the “DR/DR OA” value in experiment [3] was 0.39 and 0.388. Further, in experiment [4], the “DR/DR AA” value is 0.55 and 0.551. Further, the “DR/DR LNA” value in experiment [5] was 0.46 and 0.461.

B12: 117Q, 72A (protein, listed as Rattus norvegicus)
chain: AFDGTWKVDRNENYEKFMEKMGINVVKRKLGAHDNLKLTITQEGNKFTVKESSNFRNIDVVFELGVDFAYSAADGTELTGTWTMEGNKLVGKFKRVDNGKELIAVREISGNELIQTQTYEGVEAKRIFKKE
modifications: PEPTIDE (1)...(131) wild-type rat intestinal fatty acid binding protein
In the case of B12, the “DR/DR LA” value in experiment [1] was 1.37 and 1.374. Moreover, the “DR/DR PA” value in experiment [2] is 0.63 and 0.631. For the same molecule, the “DR/DR OA” value in experiment [3] is 1.13 and 1.134. For the same molecule, the “DR/DR AA” value in experiment [4] is 1.21 and 1.214. For the same molecule, the “DR/DR LNA” value in experiment [5] was 1.24 and 1.236.

B13: 117Y, 72A (protein, listed as Rattus norvegicus)
chain: AFDGTWKVDRNENYEKFMEKMGINVVKRKLGAHDNLKLTITQEGNKFTVKESSNFRNIDVVFELGVDFAYSAADGTELTGTWTMEGNKLVGKFKRVDNGKELIAVREISGNELIQTYTYEGVEAKRIFKKE
modifications: PEPTIDE (1)...(131) wild-type rat intestinal fatty acid binding protein
Consider B13, for which the “DR/DR LA” value in experiment [1] was found to be 1.44. Also, the “DR/DR PA” value in experiment [2] turned out to be 1.14. The “DR/DR OA” value in experiment [3] is 1.36. For the same molecule, the “DR/DR AA” value in experiment [4] is recorded as 1.35. In experiment [5], the “DR/DR LNA” value is given as 1.40.
